In article PMC3949714 (PLoS ONE, 2014):

Columns and labels:
[1] = RP-HPLC retention time (read by the paper as polarity); format: physicochemical; conditions: water/acetonitrile gradient with 0.1% formic acid, MS TIC detection
Protocol: An Agilent binary HPLC composing of an Agilent 1100 LC pump, an Agilent 1100 well plate auto-sampler (Agilent Technologies, Santa Clara, CA, USA) and a Jupiter 5 μ (C4, 300 A, 150×2.00 mm, 5 μ) RP HPLC column (Phenomenex, Torrance, CA, USA) were used for separation. The mobile phase flow rate was 200 µl/min and the volume of injection was 20 µL. The separations were performed using a binary solvent gradient; water (Milli-Q; Millipore Corporation, Bedford, MA) which contained 0.1% v/v formic acid was used as the solvent A and acetonitrile (Merck KGaA, Darmstadt, Germany) which contained 0.1% v/v formic acid (Nuplex industries Pty Ltd. (NSW, Australia) was used as the solvent B. The chromatographic separation was achieved using the gradient shown in Table 1.
An API 3000 tandem mass spectrometer equipped with a turbo ion spray was used as the detector. Detection was performed in total ion current (TIC) mode (MS1/Q1), in positive mode, within the range 200–3000 amu. The data were acquired and processed by Analyst 1.5 software (Applied Biosystems, Foster city, CA, USA). Mass spectra were obtained using: declustering potential (DF) of 16 V, focusing potential (FP) of 120 V, Entrance potential (EP) of 10 V, and Ion spray voltage (IS) of 5000 V. Structure identity of fragments was performed using the respective mass/charge (m/z) values of each peptide metabolite. Direct flow injections were carried out using Model 11 plus Harvard Syringe pump (Harvard Apparatus Inc, Holliston, MA, USA).

[2] = Biotransformation in homogenised inflamed tissue at pH 5.5 (LC/MS, mean residence time); conditions: MES pH 5.5, 37°C, 120 min, AUMC/AUC of LC/MS peak intensity
[3] = incubation of BE 1-17, Jupiter C4 column
[4] = incubation of BE 1-17 (115 µM) in rat inflamed tissue homogenate
[5] = incubation of BE 1-31, Jupiter C4 300 A column, 200 µl/min
[6] = incubation of BE 1-31 (115 µM) in rat inflamed tissue homogenate
[7] = incubation of BE 1-11, Jupiter C4 column
[8] = incubation of BE 1-13, Jupiter C4 column
[9] = incubation of BE 1-11 (115 µM) in rat inflamed tissue homogenate
[10] = incubation of BE 1-13 (115 µM) in rat inflamed tissue homogenate

Row | Substance | RT [1, 3] | MRT [2, 4] | RT [1, 5] | also measured
1 | BE 1-14: beta-endorphin N-terminal fragment, residues 1-14 (YGGFMTSEKSQTPL; Beta-endorphin; UniProt P01189 237-250, looked up, fragment) | 21.13 min | 13.8 |  | 
2 | BE 1-15: beta-endorphin N-terminal fragment, residues 1-15 (YGGFMTSEKSQTPLV; Beta-endorphin; UniProt P01189 237-251, looked up, fragment) | 22.33 min | 8.3 | 24.2 min | MRT [2, 6]: 12
3 | BE 1-16: beta-endorphin N-terminal fragment, residues 1-16 (YGGFMTSEKSQTPLVT; Beta-endorphin; UniProt P01189 237-252, looked up, fragment) | 21.38 min | 7.6 | 23.2 min | MRT [2, 6]: 9.8
4 | BE 2-9: des-tyrosine beta-endorphin fragment, residues 2-9 (GGFMTSEK; Beta-endorphin; UniProt P01189 238-245, looked up, fragment) | 15.87 min | 21 | 18.38 min | Rt [1, 7]: 15.8 min; Rt [1, 8]: 15.8 min; MRT [2, 9]: 17; MRT [2, 10]: 19.8; MRT [2, 6]: 20
5 | BE 2-11: des-tyrosine beta-endorphin fragment, residues 2-11 (GGFMTSEKSQ; Beta-endorphin; UniProt P01189 238-247, looked up, fragment) | 15.52 min | 31.8 | 17.5 min | Rt [1, 7]: 15.7 min; Rt [1, 8]: 15.7 min; MRT [2, 9]: 15; MRT [2, 10]: 20.2; MRT [2, 6]: 37
6 | BE 2-12: beta-endorphin fragment, residues 2-12 (GGFMTSEKSQT; Beta-endorphin; UniProt P01189 238-248, looked up, fragment) |  |  |  | Rt [1, 8]: 16.2 min; MRT [2, 10]: 18.1
7 | BE 2-13: des-tyrosine beta-endorphin fragment, residues 2-13 (GGFMTSEKSQTP; Beta-endorphin; UniProt P01189 238-249, looked up, fragment) | 17.08 min | 25.5 | 19.96 min | Rt [1, 8]: 17.2 min; MRT [2, 10]: 16.4; MRT [2, 6]: 65
8 | BE 2-14: beta-endorphin fragment, residues 2-14 (GGFMTSEKSQTPL; Beta-endorphin; UniProt P01189 238-250, looked up, fragment) | 20.1 min | 18.9 | 22.2 min | MRT [2, 6]: 25.1
9 | BE 2-15: beta-endorphin fragment, residues 2-15 (GGFMTSEKSQTPLV; Beta-endorphin; UniProt P01189 238-251, looked up, fragment) | 21.33 min |  |  | 
10 | BE 2-16: des-tyrosine beta-endorphin fragment, residues 2-16 (GGFMTSEKSQTPLVT; Beta-endorphin; UniProt P01189 238-252, looked up, fragment) | 20.43 min | 15.1 |  | 
11 | BE 2-17: des-tyrosine beta-endorphin fragment, residues 2-17 (GGFMTSEKSQTPLVTL; Beta-endorphin; UniProt P01189 238-253, looked up, fragment) | 24 min | 7.45 |  | 
12 | BE 3-11: beta-endorphin fragment, residues 3-11 (GFMTSEKSQ; Beta-endorphin; UniProt P01189 239-247, looked up, fragment) | 21.48 min |  |  | Rt [1, 7]: 15.4 min; MRT [2, 9]: 14
13 | BE 3-12: beta-endorphin fragment, residues 3-12 (GFMTSEKSQT; Beta-endorphin; UniProt P01189 239-248, looked up, fragment) | 20.53 min |  |  | 
14 | BE 3-13: beta-endorphin fragment, residues 3-13 (GFMTSEKSQTP; Beta-endorphin; UniProt P01189 239-249, looked up, fragment) |  |  |  | Rt [1, 8]: 17.2 min; MRT [2, 10]: 16.1
15 | BE 3-14: beta-endorphin fragment, residues 3-14 (GFMTSEKSQTPL; Beta-endorphin; UniProt P01189 239-250, looked up, fragment) | 20.1 min |  |  | 
16 | BE 3-16: beta-endorphin fragment, residues 3-16 (GFMTSEKSQTPLVT; Beta-endorphin; UniProt P01189 239-252, looked up, fragment) | 20.43 min | 11 |  | 

Row | Substance | RT [1, 3] | MRT [2, 4] | RT [1, 5] | also measured
17 | BE 3-17: beta-endorphin fragment, residues 3-17 (GFMTSEKSQTPLVTL; Beta-endorphin; UniProt P01189 239-253, looked up, fragment) | 24 min | 6.2 |  | 
18 | BE 4-11: beta-endorphin fragment, residues 4-11 (FMTSEKSQ; Beta-endorphin; UniProt P01189 240-247, looked up, fragment) |  |  |  | Rt [1, 7]: 13.8 min; MRT [2, 9]: 22.7
19 | BE 4-13: beta-endorphin fragment, residues 4-13 (FMTSEKSQTP; Beta-endorphin; UniProt P01189 240-249, looked up, fragment) | 15.67 min |  |  | Rt [1, 8]: 15.7 min; MRT [2, 10]: 18
20 | BE 4-14: beta-endorphin fragment, residues 4-14 (FMTSEKSQTPL; Beta-endorphin; UniProt P01189 240-250, looked up, fragment) | 18.68 min |  |  | 
21 | BE 4-15: beta-endorphin fragment, residues 4-15 (FMTSEKSQTPLV; Beta-endorphin; UniProt P01189 240-251, looked up, fragment) | 20.13 min |  |  | 
22 | BE 4-16: beta-endorphin fragment, residues 4-16 (FMTSEKSQTPLVT; Beta-endorphin; UniProt P01189 240-252, looked up, fragment) | 19.32 min |  |  | 
23 | BE 5-16: beta-endorphin fragment, residues 5-16 (MTSEKSQTPLVT; Beta-endorphin; UniProt P01189 241-252, looked up, fragment) | 16.92 min | 13.2 |  | 
24 | BE 5-24: beta-endorphin fragment, residues 5-24 (MTSEKSQTPLVTLFKNAIIK; Beta-endorphin; UniProt P01189 241-260, looked up, fragment) |  |  | 19 min | MRT [2, 6]: 25.1
25 | BE 6-14: beta-endorphin fragment, residues 6-14 (TSEKSQTPL; Beta-endorphin; UniProt P01189 242-250, looked up, fragment) | 14.62 min |  |  | 
26 | BE 6-16: beta-endorphin fragment, residues 6-16 (TSEKSQTPLVT; Beta-endorphin; UniProt P01189 242-252, looked up, fragment) | 16 min |  | 18.4 min | MRT [2, 6]: 22.4
27 | BE 6-31: beta-endorphin fragment, residues 6-31 (TSEKSQTPLVTLFKNAIIKNAYKKGE; Beta-endorphin; UniProt P01189 242-267, looked up, fragment) |  |  | 24.7 min | MRT [2, 6]: 40
28 | BE 7-14: beta-endorphin fragment, residues 7-14 (SEKSQTPL; Beta-endorphin; UniProt P01189 243-250, looked up, fragment) | 14.92 min |  |  | 
29 | BE 7-16: beta-endorphin fragment, residues 7-16 (SEKSQTPLVT; Beta-endorphin; UniProt P01189 243-252, looked up, fragment) | 16 min |  |  | 
30 | BE 8-14: beta-endorphin fragment, residues 8-14 (EKSQTPL; Beta-endorphin; UniProt P01189 244-250, looked up, fragment) | 16.27 min |  |  | 
31 | BE 29-31: beta-endorphin fragment, residues 29-31 (KGE; Beta-endorphin; UniProt P01189 265-267, looked up, fragment) |  |  | 5.4 min | 
